Among the data in article PMC5016095 (2016) are Kd values, retold here.

Usually Kd stands for the equilibrium constant for the complex coming apart.

Assay [1] addresses α-synuclein (oligomeric) (Homo sapiens, UniProt P37840, oligomeric, pseudo-wildtype tryptophan mutant). The assay can be described thus: fluorescence spectroscopy.
In assay [2] the target is α-synuclein S129E (Homo sapiens, UniProt P37840). The experiment in a line: fluorescence spectroscopy.

B1: TOM20 C-terminal cytosolic fragment (protein)
chain: DRKRRSDPNFKNRLRERRKKQKLAKERAGLSKLPDLKDAEAVQKFFLEEIQLGEELLAQGDYEKGVDHLTNAIAVCGQPQQLLQVLQQTLPPPVFQMLLTKLPTISQRIVSAQSLAEDDVE
Consider B1, for which the Kd in assay [1] and in assay [2] was roughly 5 µM each time.
